From article PMC9483092

Target: DYK-tagged transmembrane serine protease 13 (TMPRSS13) stably expressed in HEK cells (HEK-T) (human) (UniProt Q9BYE2)
Assay: co-IP; competition: 20 µg recombinant spike S2 fragment added to HEK-T cells 2 h before IL4I1; read-out IL4I1 co-precipitated with TMPRSS13-DYK

Sequence of UniProt Q9BYE2 (Q9BYE2 other isoform, or with tags, fused parts or gaps): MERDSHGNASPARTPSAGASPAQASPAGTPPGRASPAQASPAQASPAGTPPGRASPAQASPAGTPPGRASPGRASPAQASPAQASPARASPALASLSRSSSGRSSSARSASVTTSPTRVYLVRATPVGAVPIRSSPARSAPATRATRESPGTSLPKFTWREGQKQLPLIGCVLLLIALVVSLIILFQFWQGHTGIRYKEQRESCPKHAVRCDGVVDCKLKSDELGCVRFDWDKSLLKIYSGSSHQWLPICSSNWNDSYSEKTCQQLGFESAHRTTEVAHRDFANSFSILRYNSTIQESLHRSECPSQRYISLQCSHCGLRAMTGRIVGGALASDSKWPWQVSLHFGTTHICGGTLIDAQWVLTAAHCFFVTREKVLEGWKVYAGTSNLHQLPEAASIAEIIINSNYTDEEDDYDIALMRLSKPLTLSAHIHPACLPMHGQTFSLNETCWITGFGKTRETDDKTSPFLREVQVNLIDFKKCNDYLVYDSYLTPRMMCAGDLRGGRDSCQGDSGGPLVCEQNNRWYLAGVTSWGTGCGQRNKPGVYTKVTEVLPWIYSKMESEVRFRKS

## recombinant S2 fragment of the SARS-CoV-2 spike protein (domain or fragment)
  percent decrease of IL4I1 binding to TMPRSS13 with 20 µg S2 per 80 µg IL4I1: 50%
